In the supplement of paper PMC12042874 one finds amyloid nucleation score data, which are given here for 139 substances.

± gives the uncertainty stated by the source.

This data set can be described thus: amyloid nucleation score (Sup35N fusion, yeast selection) (log enrichment); library NNK2; higher = more nucleation; inactive = no reads after selection. Put shortly: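 Sup35N fusions to peptides of 20 random codons were expressed in psi-negative yeast, induced 24 hours with 100 μM copper sulfate, and grown 7 days at 30°C on medium lacking adenine and uracil. Input and output plasmid inserts were sequenced by Illumina. The nucleation score is the DiMSum log enrichment of output over input reads, centred on the mode score of non-aggregating sequences. Sequences with under 100 input reads were excluded.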
The substance LIKLMGLV showed an amyloid nucleation score of 0.466 ± 0.43.
Consider KSIAGNC, for which the amyloid nucleation score is -1.48 ± 0.78.
For SNSCTPAGLETGNLK the value was “inactive”; for FHIDTIRTVRLAWYTTEHWQ, 5.34 ± 0.07; for SPRRFLMKQGIHQVTLAHCH, -0.342 ± 0.76.
VWWSLSYFQAVRGQLFHQIV yielded an amyloid nucleation score of -0.139 ± 0.42.
For INSASESKGKGIILSTNGDS the value was -0.717 ± 0.39.
For FYIMFLVRCYKDEPSTRANL the value was -0.796 ± 0.62.
CVFAHFCCLFASMMPCKFSW displayed an amyloid nucleation score of -0.127 ± 1.
For VNSLFDWNRAKFLIR the value was -1.39 ± 0.79.
For GGVAETGERFWHSRLHG the value was 0.679 ± 0.81.
For CDPFYTSLGCSSN the value was 2.85 ± 0.2; for SFLRSNRGEVLPCNILNYVA, “inactive”; for VFLLTLRCCWEFVLCADGP, 1.29 ± 0.36.
Turning to LFVDKMCERDFYFVSSHRYR, the amyloid nucleation score is 0.306 ± 0.8.
For CLLNVTEAFTGGSMIGWHFR the value was 5.393 ± 0.049; for QILWYWGREVFSRRDRFCSV, 1 ± 0.68.
For KLGCYVS the value was 3.23 ± 0.088.
For GVDKWLDHVCFVASYLSVKV the value was 1.22 ± 0.51; for LLYRYYSF, 3.72 ± 0.056.
As to RKQNTVQWSNHFLHCKMPST, the amyloid nucleation score result was “inactive”.
For VCFNWRHYATRLSDERWLRS the value was 1.1 ± 0.52.
Substance VMRLFIGAGIGRAEL registered an amyloid nucleation score of 5.63 ± 0.059.
For IALFVGFLVDAKDEGIL the value was -0.419 ± 0.26.
Take VKRVFGYCFIEGLSKDVFHG: the amyloid nucleation score stood at 6.351 ± 0.043.
For SSMDFVHCSWAVWHLGSFLC the value was -1.01 ± 0.78.
For FVLTSSMVLFWDGRNDARHG the value was 4.31 ± 0.08; for NLGNDGHSELRHYSNL, “inactive”.
For FRGLVILNRNGVCDILEYGC the value was -0.58 ± 0.27; for RSVWNASAFVAIFFRVRSQA, 0.547 ± 0.36; for VVRSHTLQNSALRCWSDG, 0.935 ± 0.39.
In the case of GYDGRFIASRSVYFKARIGG, the amyloid nucleation score was -0.056 ± 0.29.
For VEWCRMVGWSFECEASEKHW the value was 4.33 ± 0.055; for ALVLRATVVVGIVKPGHAAD, 0.523 ± 0.32.
For CISWL the value was “inactive”.
For CYRVVTLFNFK the value was 6.178 ± 0.029; for LRYPKRGFPNHVLSIESKLD, -0.479 ± 1.
Substance NLRWPIFNSWSSG showed an amyloid nucleation score of -0.553 ± 0.27.
For ALLDHFPDEGHFKATFISSI the value was 0.85 ± 0.58; for IFSTFCFLSAILFSIFPYEP, “inactive”; for RWATVLLDPF, -0.299 ± 0.79.
For VRLVMI the value was 0.019 ± 1.1; for DESICCQEVGNSRVDSDEGR, 2.94 ± 0.12.
For SFHWPSTGYKRVYFSPLLIV the value was “inactive”; for TDGDRFSCRVKWNRHEDQRT, 0.463 ± 0.24; for ISYSVKPLYFVSRVRTVNLG, 4.13 ± 0.078.
SMADFIV displayed an amyloid nucleation score of -0.767 ± 0.76.
As to YIDALSIVFCVAVIGHTPTW, the amyloid nucleation score amounted to 8.753 ± 0.039.
For INTCIWASLYLSMAHEYRI the value was -0.793 ± 0.62; for NRWMRGDTVWNVGWWSPNWG, 0.173 ± 0.46; for LQSRWCRVKETWQS, 1.66 ± 0.32.
For RMHWTKTH the value was -0.311 ± 1.1; for ITKAASTWDLLFFVRQVCRT, 0.353 ± 0.61.
LQGRYNSTYYMDVAGLVVSE came in with an amyloid nucleation score of -1.23 ± 0.76.
For LLDWTLLSNST the value was “inactive”.
For MLNLVATVLWDWSVDCSWQV the value was 1.5 ± 0.11.
For KGVCRNMAGGKYANMRYGGV the value was 5.09 ± 0.051; for GVKST, 0.422 ± 0.74; for IGTADDKVSNRQGEPTEMA, 0.681 ± 0.55.
As to ILLVILLTRIVKRSFFYRGF, the amyloid nucleation score result is “inactive”.
For CHNYELCCRLFNSFSTNQIA the value was -0.468 ± 0.29; for AWRKRH, 0.746 ± 0.18; for VGETLLSFCINWRVGYMFGN, -0.518 ± 0.5.
In turn, FWYLLSLGQIIRSVNLGNWI returned an amyloid nucleation score of -0.78 ± 1.1.
For SKTYRPCARLSFEHGRCNLV the value was 3.68 ± 0.11; for LRDCLIRNPLKLRTKLTGHV, 0.608 ± 0.3.
For SKNDCRVFPSDMHFWHDLVE the value was 0.351 ± 0.44; for IQYPLFSCTYEGFFGDRYMA, -0.495 ± 0.55; for SPGIITCGYKLLDG, 1.69 ± 0.27.
Regarding FLTYRLSNYYTPGKFCVYFK, the amyloid nucleation score result is “inactive”.
As to ADLCHTGRGSMRPCETED, the amyloid nucleation score result is “inactive”.
For ACGPQPETLSGLMSRGLLRR the value was 0.619 ± 0.64; for LVAVVQGFRCVCLDSKLTGV, “inactive”.
For HIRLRY the value was -0.101 ± 0.8.
For GHMVYRTNVGRSV the value was 0.187 ± 0.74; for GKYSLTTCAR, 0.449 ± 0.8.
On to NWPNPVSLMSRIDFRMV, for which the amyloid nucleation score is -0.131 ± 0.31.
For TRDIELWLGWNRKEVCVLLE the value was “inactive”; for HADNARRYQTTLMVGLRVVG, 0.409 ± 0.49; for EDEWMHLVRVQFQGKDRKAA, 0.92 ± 0.28.
For KVLATMGDIGVVLSVMLVPV the value was 1.33 ± 0.3.
For TIVYWSTTRTTAPGDDRESV the value was 5.31 ± 0.062.
Regarding STWDGWGFSWISFL, the amyloid nucleation score is -0.635 ± 1.
For RFTLIFCGSRESNGG the value was 6.43 ± 0.065; for VCREMSYLQ, -0.809 ± 0.54; for STESARSKRGMSSPMNSIRA, 0.029 ± 0.32.
For VFSGGSPWWVANMRGAPKLL the value was 0.94 ± 0.2; for YFILKFVQTGGNS, 4.12 ± 0.041.
For GSYCCLVKFMKFFSSLGHQF the value was -1.29 ± 1; for RFGSADVSITRVDFSS, 0.961 ± 0.15.
With ALFYLSCQPSTGALESRYLG, the amyloid nucleation score was found to be 1.73 ± 0.29.
For the substance TVIRRIYFRRPGRSNMSCTN, the amyloid nucleation score was -0.067 ± 0.65.
For LYEMVVM the value was 0.05 ± 1.
VRSRKCLSVRLFSSVMGVSD had an amyloid nucleation score of -0.88 ± 0.54.
For ARYMSQVRRTSSHTLNEKI the value was 0.545 ± 0.51.
For RTVYFCQN the value was -1.5 ± 1.1; for VLFAWSASDVIVV, 0.639 ± 0.33.
For VFHRVEYSWGFRFYCCCLMC the value was 3.91 ± 0.059; for HLVSSRGRMWPPFAPVGKQD, 0.492 ± 0.64.
For the substance AERLRVISGWAAWYAIDTRF, the amyloid nucleation score turned out to be 3.82 ± 0.11.
Consider GMYGLCF, for which the amyloid nucleation score is -0.524 ± 0.64.
VMWASERWYANETNSHLFSL had an amyloid nucleation score of -0.105 ± 0.26.
For YSVFNTSNFSALDPRFRRLF the value was 0.201 ± 0.8; for WLSTKWIFFISNVKFFLYLR, -0.06 ± 1; for CKSSGGWNVEMWSVK, -0.399 ± 0.41.
For GVFALSPRKHLRCDVVAWGV the value was 0.884 ± 0.55; for MEFDVLSIFQRGSRAGAK, -1.3 ± 0.54.
For MGLMNCSYSVKKQAAVIRTD the value was 0.06 ± 0.17.
For KVFNSLASYSSIDLWCVVAG, the amyloid nucleation score entry is “inactive”.
For SYCVWCLYTSLLTLGQSASI the value was 0.163 ± 0.33.
For SFIVRQGPTHKFVSECS the value was -0.887 ± 0.54; for VNTPDISGRHVSYFDFFVFY, 6.337 ± 0.038.
For IVYKGFLREN the value was “inactive”; for LRLSHMFLVNMSWGNVINLC, 3.28 ± 0.091.
Turning to VCELGRRWDLRSVLSC, the amyloid nucleation score was found to be 0.624 ± 0.42.
For FASRSCEFCEREY the value was 3.2 ± 0.085.
For LFDLDSESRMTPQGGLRNAT the value was -0.665 ± 0.54; for GMVCVP, 0.876 ± 0.25.
For FSRQISNGFIRGLFL the value was “inactive”.
As to IRQAWLYS, the amyloid nucleation score is 0.615 ± 0.13.
In turn, LRIQCMMTLVWYSTPQSCNT had an amyloid nucleation score of 5.56 ± 0.066.
Take STTWNSLELTTDNAAGAAII: the amyloid nucleation score came out at 2.95 ± 0.09.
In turn, VFPMNELMASTVNKA yielded an amyloid nucleation score of 6.274 ± 0.033.
As for DLVRYFC, the amyloid nucleation score was 4.26 ± 0.055.
For the substance VDWVMNCYTSGVVSLSFSLG, the amyloid nucleation score entry was “inactive”.
For YDYEEFRSVLKWIAGRIYVD the value was -1.27 ± 0.48; for FGDWWSI, -1.1 ± 0.63.
VFYELGLFLLNFVVLHASED yielded an amyloid nucleation score of 1.68 ± 0.18.
For LITIAIAARCSRMIGLQLFL the value was -0.495 ± 0.32; for KIKYYEAIDGACNSGWFDLG, 2.92 ± 0.057.
Take QLRGLVL: the amyloid nucleation score stood at 0.704 ± 0.44.
For IGVSLTYKIQVSTRLFSTLY the value was 3.29 ± 0.15; for YINHSHVRGIVRIYNVQV, “inactive”; for NDDKRSRLMRWETSKIRSSV, 3.89 ± 0.052.
For NVFFSFSMYKDAYNE the value was -0.937 ± 0.54.
For RLSLGKGAVTDT the value was 0.837 ± 0.19; for RWKTVFRVYVEQKALPDLIC, 5.85 ± 0.087.
With SSWVFITFSYVMRSQVYHLK, the amyloid nucleation score is -1.12 ± 0.49.
For SNSQMKAAMVGCNLRGMEQA the value was 0.689 ± 0.57.
